Assay results as given in article PMC4231748, “Human PrimPol mutation associated with high myopia has a DNA replication defect”.

Biological target: T1, PrimPolY89D1-354 (polymerase domain) (human, UniProt Q96LW4 1-354, Y89D)
T1 sequence: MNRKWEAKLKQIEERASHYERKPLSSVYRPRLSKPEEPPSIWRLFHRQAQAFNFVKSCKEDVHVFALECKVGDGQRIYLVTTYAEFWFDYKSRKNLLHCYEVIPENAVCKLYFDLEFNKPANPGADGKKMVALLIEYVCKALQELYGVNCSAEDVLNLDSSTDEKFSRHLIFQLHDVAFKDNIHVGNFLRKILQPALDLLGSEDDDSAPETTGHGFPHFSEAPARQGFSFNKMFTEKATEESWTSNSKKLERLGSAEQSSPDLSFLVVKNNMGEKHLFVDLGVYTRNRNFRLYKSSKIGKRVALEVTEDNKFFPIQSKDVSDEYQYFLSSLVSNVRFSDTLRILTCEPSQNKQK
Experiment: EMSA; 10 mM Mg2+; EMSA: 60 nM DNA, 10 mM Bis-Tris-Propane-HCl pH 7.0, 10 mM MgCl2, 1 mM DTT, 25 C, 60 min; 5% polyacrylamide gel in 0.5x TBE
Details: protein: recombinant; label: 5'-Hex on strand 1 (HP-20); 20 bp duplex, 5' overhang 30 nt on template strand (S12), other end blunt

B1: Overhanging DNA substrate (HP-20 primer / ND-50 TemplateTT) (dsDNA)
DNA 1: TGTCGTCTGTTCGGTCGTTC
DNA 2: CGCGCAGGGCGCACAACAGCCTTGAAGACCGAACGACCGAACAGACGACA
Kd: 2.55 µM
